Reference: the RNAGym collection of RNA variant scans (doi:10.7554/elife.80360)

B1: HDV Ribozyme (parent)
chain: GGCCGGCAUGGUCCCAGCCUCCUCGCUGGCGCCGGCUGGGCAACAUUCCGAGGGGACCGUCCCCUCGGUAAUGGCGAAUGGGACCCA

Variants of: B1
Assay: self-cleavage, relative activity (ratio to wild type); higher = more cleavage; co-transcriptional

Variant | self-cleavage
U37C A51G | 0.966
U37A G55A | 0.283
G39A C84G | 0.0852
G38A C64A | 0.0678
G38A C64U | 0.225
G39A A43U | 0.0241
U37A G80C | 0.163
U37G C64U | 0
G38U G50U | 0.352
G38U G50A | 0.218
G38C C49G | 0.156
G38U C66A | 0.185
U37G G67A | 0.0692
C36U C75A | 0.203
U37C G74A | 0.196
U37A U60G | 0.192
G38C G39C | 0.0426
U37G C63A | 0.123
U37C C48U | 1.14
G39C C63G | 0.0437
C36G G74C | 0.0723
C36G G74U | 0.111
G38U A77U | 0.0845
G38U A77C | 0.0554

Variant | self-cleavage
U37G A42C | 0.308
U37G A42U | 0
U37A C86G | 0.0875
U37G C85G | 0.201
C36G G39A | 0.0326
U37A C61U | 0.277
U37A C61G | 0.151
C36G C86U | 0.0437
G38U C84A | 0.174
U37G U60C | 0.256
G38U A56G | 0.193
G38U A56U | 0.273
G38A A70C | 0.177
G38A A70U | 0.148
G39A C61U | 0.54
G39A C61A | 0.546
U37G G39A | 0.0811
G38C G73C | 0.284
G38C A70G | 0.0978
G39C G52C | 0.309
C36U A87G | 0.674
G38C C62U | 0.197
G38A C75A | 0.115
G39A A42C | 0

Variant | self-cleavage
U37A G76A | 0.172
U37A G76C | 0.203
G39A G54U | 0.517
G39A G54C | 0.369
G39A C49A | 0.573
G38A G67U | 0.135
G38A G67A | 0.0665
G39A C57G | 0.591
G38U G68C | 0.245
G39C G74A | 0.36
U37C G38C | 0.237
G38U G74U | 0.14
G38U G74C | 0.115
G38C C84U | 0.158
U37A G40A | 0.305
U37C A83G | 0.76
G38C G55U | 0.193
G39A C58G | 0.363
G38U C44G | 0.0652
C36U A42G | 0.122
G39A A77G | 0.141
G38C G74C | 0.148
C36U G40C | 0.0959
G38A A43U | 0.111

Variant | self-cleavage
C36U G74C | 0.253
C36U G74A | 0.205
C36G G68U | 0.0615
U37C G67C | 0.989
U37C G67U | 0.974
C36U C44G | 0.231
G39C C86U | 0.208
G39C C86G | 0.259
G39C A70C | 0.175
G39A G59C | 0.546
G39A G59U | 0.598
U37C C64A | 0.831
G38U U47G | 0.166
G38U U47C | 0.133
C36G G59C | 0.0755
G38A G68U | 0.18
G38A G68C | 0.197
G38A U79C | 0.161
U37G G82A | 0.158
G39C A51U | 0.219
U37A C41G | 0.0723
U37G U47G | 0
U37C G55A | 1
C36G G55A | 0.117

Variant | self-cleavage
C36U U47A | 0.481
G39A U47A | 0.356
G38C U79C | 0.0264
G39C G55U | 0.305
G39C G55A | 0.211
G39A C63U | 0.503
G38U U72A | 0.0378
G38U G52U | 0.273
G38U G52C | 0.169
G38A U47A | 0.0594
G38A U47G | 0.116
G38U C41G | 0.325
U37G A45C | 0
U37A C57G | 0.213
C36U A70U | 0.702
G39A A56U | 0.676
G39A A56C | 0.447
U37G G54C | 0.0594
U37G G54U | 0.135
U37C C66G | 0.932
U37G C84U | 0.111
G39C C62A | 0.244
G38A G59A | 0.0801
G38U U65G | 0.233

Variant | self-cleavage
G39C G73U | 0.106
G38C C64U | 0.369
U37G C57G | 0.145
U37G G73U | 0.0923
U37A A70G | 0.214
C36U G53C | 0.815
G38U C49U | 0.172
G39A A70G | 0.483
U37C A43U | 0.172
G39C G50A | 0.246
G38C A77U | 0.128
G38C A77C | 0.177
C36U A45G | 0.522
G38C A78G | 0.0639
G38A A71U | 0.102
G38U C85A | 0.205
U37A G81A | 0.166
U37C C62U | 1.26
U37C C62G | 0.0723
U37C A78U | 0.161
U37C A78G | 0.475
U37C A78C | 0.196
G38A G80C | 0.117
G38C C75U | 0.0297

Variant | self-cleavage
U37A A83G | 0.115
U37A A83U | 0.104
U37A A83C | 0.0378
G39A G50A | 0.445
G38U G76U | 0.237
G38A C48G | 0.148
U37G G38A | 0.111
U37G G38U | 0.155
G39C C61U | 0.233
G39C C61G | 0.196
G38C A42G | 0.0449
U37A G68U | 0.0845
U37C G68A | 0.864
U37G A77U | 0.138
G39C G54A | 0.188
G38C C44U | 0.104
U37G C66U | 0.196
U37G A78G | 0
G39A A87C | 0.578
G39A A87G | 0.517
U37C C61G | 0.816
U37C C61A | 1.2
U37A G82U | 0.166
